Results published in patent US20240117018A1.

Tests used:
Assay in all cases: cell-based or functional assay
[1] = target: HIV-1 Env of pseudovirus 3817.v2.c59 (HIV-1)
[2] = target: HIV-1 Env of pseudovirus T278-50 (HIV-1)
[3] = target: HIV-1 Env of pseudovirus R2184.c04 (HIV-1)
[4] = target: HIV-1 Env of pseudovirus A07412M1.vrc12 (HIV-1)
[5] = target: HIV-1 Env of pseudovirus 235-47 (HIV-1)
[6] = target: HIV-1 Env of pseudovirus BJOX009000.02.4 (HIV-1)
[7] = target: HIV-1 Env of pseudovirus 6041.v3.c23 (HIV-1)
[8] = target: HIV-1 Env of pseudovirus 6952.v1.c20 (HIV-1)
[9] = target: HIV-1 Env of pseudovirus X1254_c3 (HIV-1)
[10] = target: HIV-1 Env of pseudovirus X2088_c9 (HIV-1)
[11] = target: HIV-1 Env of pseudovirus 231966.c02 (HIV-1)
[12] = target: HIV-1 Env of pseudovirus T255-34 (HIV-1)
[13] = target: HIV-1 Env of pseudovirus X1632_S2_B10 (HIV-1)
[14] = target: HIV-1 Env of pseudovirus X1193_c1 (HIV-1)
[15] = target: HIV-1 Env of pseudovirus 231965.c01 (HIV-1)
[16] = target: HIV-1 Env of pseudovirus 6540.v4.c1 (HIV-1)
[17] = target: HIV-1 Env of pseudovirus 6811.v7.c18 (HIV-1)
[18] = target: HIV-1 Env of pseudovirus 263-8 (HIV-1)
[19] = target: HIV-1 Env of pseudovirus 211-9 (HIV-1)
[20] = target: HIV-1 Env of pseudovirus R1166.c01 (HIV-1)
[21] = target: HIV-1 Env of pseudovirus 0815.v3.c3 (HIV-1)
[22] = target: HIV-1 Env of pseudovirus C1080.c03 (HIV-1)
[23] = target: HIV-1 Env of pseudovirus 6545.v4.c1 (HIV-1)
[24] = target: HIV-1 Env of pseudovirus 89-F1_2_25 (HIV-1)
[25] = target: HIV-1 Env of pseudovirus BJOX015000.11.5 (HIV-1)
[26] = target: HIV-1 Env of pseudovirus 9004SS_A3_4 (HIV-1)
[27] = target: HIV-1 Env of pseudovirus C3347.c11 (HIV-1)
[28] = target: HIV-1 Env of pseudovirus BJOX028000.10.3 (HIV-1)
[29] = target: HIV-1 Env of pseudovirus 3016.v5.c45 (HIV-1)
[30] = target: HIV-1 Env of pseudovirus X2131_C1_B5 (HIV-1)
[31] = target: HIV-1 Env of pseudovirus BJOX010000.06.2 (HIV-1)
[32] = target: HIV-1 Env of pseudovirus BJOX025000.01.1 (HIV-1)
[33] = target: HIV-1 Env of pseudovirus 191955_A11 (HIV-1)
[34] = target: HIV-1 Env of pseudovirus P0402_c2_11 (HIV-1)
[35] = target: HIV-1 Env of pseudovirus R3265.c06 (HIV-1)
[36] = target: HIV-1 Env of pseudovirus T257-31 (HIV-1)

With N49P7.1 (antibody) the IC50 (neutralisation, TZM.bl cells) [1] was 1.48 µg/mL, the IC80 (neutralisation, TZM.bl cells) [1] was 8.36 µg/mL and the MPI [1] was 97. The IC50 [2] was 42.4 µg/mL, the IC80 [2] was > 50 µg/mL and the MPI [2] was 56. For the same substance, the IC50 [3] was 0.018 µg/mL, the IC80 [3] was 0.04 µg/mL and the MPI [3] was 100. It also gave an IC50 (neutralisation, TZM.bl cells) [4] of 0.232 µg/mL, an IC80 (neutralisation, TZM.bl cells) [4] of 1.07 µg/mL and an MPI [4] of 100. For the same substance, the IC50 [5] was 0.078 µg/mL, the IC80 [5] was 0.419 µg/mL and the MPI [5] was 97. For the same substance, the IC50 [6] was 0.219 µg/mL, the IC80 [6] was 0.756 µg/mL and the MPI [6] was 100. The IC50 (neutralisation, TZM.bl cells) [7] was 0.078 µg/mL, the IC80 (neutralisation, TZM.bl cells) [7] was 0.366 µg/mL and the MPI [7] was 100. For the same substance, the IC50 (neutralisation, TZM.bl cells) [8] was 26.3 µg/mL, the IC80 (neutralisation, TZM.bl cells) [8] was > 50 µg/mL and the MPI [8] was 71. The IC50 [9] was 3.96 µg/mL, the IC80 [9] was 18.2 µg/mL and the MPI [9] was 96. The IC50 [10] was 0.199 µg/mL, the IC80 [10] was 0.726 µg/mL and the MPI [10] was 100. For the same substance, the IC50 (neutralisation, TZM.bl cells) [11] was 0.203 µg/mL, the IC80 (neutralisation, TZM.bl cells) [11] was 0.705 µg/mL and the MPI [11] was 100. For the same substance, the IC50 [12] was 0.094 µg/mL, the IC80 [12] was 0.447 µg/mL and the MPI [12] was 100. For the same substance, the IC50 (neutralisation, TZM.bl cells) [13] was 17.9 µg/mL, the IC80 (neutralisation, TZM.bl cells) [13] was > 50 µg/mL and the MPI [13] was 65. For the same substance, the IC50 [14] was 0.035 µg/mL, the IC80 [14] was 0.144 µg/mL and the MPI [14] was 100. For the same substance, the IC50 (neutralisation, TZM.bl cells) [15] was 0.106 µg/mL, the IC80 (neutralisation, TZM.bl cells) [15] was 0.364 µg/mL and the MPI [15] was 100. For the same substance, the IC50 (neutralisation, TZM.bl cells) [16] was 14.7 µg/mL, the IC80 (neutralisation, TZM.bl cells) [16] was > 50 µg/mL and the MPI [16] was 75. The IC50 (neutralisation, TZM.bl cells) [17] was 0.321 µg/mL, the IC80 (neutralisation, TZM.bl cells) [17] was 1.46 µg/mL and the MPI [17] was 100. The IC50 [18] was 0.104 µg/mL, the IC80 [18] was 0.392 µg/mL and the MPI [18] was 100. The IC50 [19] was 0.34 µg/mL, the IC80 [19] was 1.17 µg/mL and the MPI [19] was 100. For the same substance, the IC50 [20] was 0.136 µg/mL, the IC80 [20] was 0.461 µg/mL and the MPI [20] was 100. It also gave an IC50 (neutralisation, TZM.bl cells) [21] of 0.023 µg/mL, an IC80 (neutralisation, TZM.bl cells) [21] of 0.064 µg/mL and an MPI [21] of 100. The IC50 [22] was 0.144 µg/mL, the IC80 [22] was 1.05 µg/mL and the MPI [22] was 100. For the same substance, the IC50 (neutralisation, TZM.bl cells) [23] was 1.15 µg/mL, the IC80 (neutralisation, TZM.bl cells) [23] was 16 µg/mL and the MPI [23] was 92. The IC50 (neutralisation, TZM.bl cells) [24] was 41.6 µg/mL, the IC80 (neutralisation, TZM.bl cells) [24] was > 50 µg/mL and the MPI [24] was 58. It also gave an IC50 [25] of 0.111 µg/mL, an IC80 [25] of 0.487 µg/mL and an MPI [25] of 100. It also gave an IC50 [26] of 0.221 µg/mL, an IC80 [26] of 0.841 µg/mL and an MPI [26] of 100. For the same substance, the IC50 [27] was 0.048 µg/mL, the IC80 [27] was 0.161 µg/mL and the MPI [27] was 100. The IC50 [28] was 0.031 µg/mL, the IC80 [28] was 0.29 µg/mL and the MPI [28] was 100. It also gave an IC50 (neutralisation, TZM.bl cells) [29] of 0.559 µg/mL, an IC80 (neutralisation, TZM.bl cells) [29] of 2.54 µg/mL and an MPI [29] of 100. It also gave an IC50 (neutralisation, TZM.bl cells) [30] of 0.129 µg/mL, an IC80 (neutralisation, TZM.bl cells) [30] of 0.431 µg/mL and an MPI [30] of 100. The IC50 [31] was 0.132 µg/mL, the IC80 [31] was 0.623 µg/mL and the MPI [31] was 100. For the same substance, the IC50 [32] was 0.057 µg/mL, the IC80 [32] was 0.378 µg/mL and the MPI [32] was 100. The IC50 [33] was 1.99 µg/mL, the IC80 [33] was 10.1 µg/mL and the MPI [33] was 98. The IC50 [34] was 0.029 µg/mL, the IC80 [34] was 0.115 µg/mL and the MPI [34] was 100. The IC50 [35] was 0.059 µg/mL, the IC80 [35] was 0.328 µg/mL and the MPI [35] was 100. It also gave an IC50 [36] of 0.209 µg/mL, an IC80 [36] of 1.04 µg/mL and an MPI [36] of 100.
In the case of PG9 (antibody), the IC50 neutralization (TZM.bl) [1] is reported as 0.02 µg/mL, the IC80 neutralization (TZM.bl) [1] is reported as 0.062 µg/mL and the IC50 neutralization (TZM.bl) [2] is reported as 0.393 µg/mL. For the same substance, the IC80 neutralization (TZM.bl) [2] was 3.19 µg/mL, the IC50 neutralization (TZM.bl) [3] was 0.255 µg/mL and the IC80 neutralization (TZM.bl) [3] was 1.24 µg/mL. It also gave an IC50 neutralization (TZM.bl) [4] of 0.697 µg/mL, an IC80 neutralization (TZM.bl) [4] of 7.96 µg/mL and an IC50 neutralization (TZM.bl) [5] of 0.233 µg/mL. The IC80 neutralization (TZM.bl) [5] was 1.2 µg/mL, the IC50 neutralization (TZM.bl) [6] was 1.73 µg/mL and the IC80 neutralization (TZM.bl) [6] was 8.21 µg/mL. The IC50 neutralization (TZM.bl) [7] was 0.244 µg/mL, the IC80 neutralization (TZM.bl) [7] was 3.64 µg/mL and the IC50 neutralization (TZM.bl) [8] was > 50 µg/mL. The IC80 neutralization (TZM.bl) [8] was > 50 µg/mL, the IC50 neutralization (TZM.bl) [9] was 0.065 µg/mL and the IC80 neutralization (TZM.bl) [9] was 0.304 µg/mL. The IC50 neutralization (TZM.bl) [10] was > 50 µg/mL, the IC80 neutralization (TZM.bl) [10] was > 50 µg/mL and the IC50 neutralization (TZM.bl) [11] was 0.075 µg/mL. It also gave an IC80 neutralization (TZM.bl) [11] of 0.257 µg/mL, an IC50 neutralization (TZM.bl) [12] of 0.023 µg/mL and an IC80 neutralization (TZM.bl) [12] of 0.134 µg/mL. The IC50 neutralization (TZM.bl) [13] was 0.107 µg/mL, the IC80 neutralization (TZM.bl) [13] was 0.934 µg/mL and the IC50 neutralization (TZM.bl) [14] was 0.105 µg/mL. For the same substance, the IC80 neutralization (TZM.bl) [14] was 0.304 µg/mL, the IC50 neutralization (TZM.bl) [15] was 1.28 µg/mL and the IC80 neutralization (TZM.bl) [15] was 48 µg/mL. For the same substance, the IC50 neutralization (TZM.bl) [16] was 0.07 µg/mL, the IC80 neutralization (TZM.bl) [16] was 0.253 µg/mL and the IC50 neutralization (TZM.bl) [17] was > 50 µg/mL. For the same substance, the IC80 neutralization (TZM.bl) [17] was > 50 µg/mL, the IC50 neutralization (TZM.bl) [19] was 0.049 µg/mL and the IC80 neutralization (TZM.bl) [19] was 0.243 µg/mL. For the same substance, the IC50 neutralization (TZM.bl) [20] was 0.736 µg/mL, the IC80 neutralization (TZM.bl) [20] was 2.88 µg/mL and the IC50 neutralization (TZM.bl) [21] was > 50 µg/mL. For the same substance, the IC80 neutralization (TZM.bl) [21] was > 50 µg/mL, the IC50 neutralization (TZM.bl) [22] was 0.004 µg/mL and the IC80 neutralization (TZM.bl) [22] was 0.013 µg/mL. The IC50 neutralization (TZM.bl) [23] was 0.099 µg/mL, the IC80 neutralization (TZM.bl) [23] was 0.351 µg/mL and the IC50 neutralization (TZM.bl) [24] was 0.668 µg/mL. The IC80 neutralization (TZM.bl) [24] was 10.1 µg/mL, the IC50 neutralization (TZM.bl) [25] was 0.322 µg/mL and the IC80 neutralization (TZM.bl) [25] was 1.49 µg/mL. The IC50 neutralization (TZM.bl) [27] was 0.032 µg/mL, the IC80 neutralization (TZM.bl) [27] was 0.113 µg/mL and the IC50 neutralization (TZM.bl) [28] was 1.1 µg/mL. The IC80 neutralization (TZM.bl) [28] was 21.5 µg/mL, the IC50 neutralization (TZM.bl) [29] was 2.46 µg/mL and the IC80 neutralization (TZM.bl) [29] was > 50 µg/mL. For the same substance, the IC50 neutralization (TZM.bl) [30] was 0.084 µg/mL, the IC80 neutralization (TZM.bl) [30] was 0.286 µg/mL and the IC50 neutralization (TZM.bl) [31] was 0.154 µg/mL. The IC80 neutralization (TZM.bl) [31] was 0.74 µg/mL, the IC50 neutralization (TZM.bl) [32] was 0.144 µg/mL and the IC80 neutralization (TZM.bl) [32] was 0.335 µg/mL. For the same substance, the IC50 neutralization (TZM.bl) [34] was 0.296 µg/mL, the IC80 neutralization (TZM.bl) [34] was 2.37 µg/mL and the IC50 neutralization (TZM.bl) [35] was 0.163 µg/mL. The IC80 neutralization (TZM.bl) [35] was 0.535 µg/mL.
